Measured values reported in the DeepSol protein solubility set.

Test: soluble on expression in E. coli; label from the status in PepcDB or PDB records

| Sequence | soluble on expression in E. coli |
| --- | --- |
| MTVQTSKNPQVDIAEDNAFFPSEYSLSQYTSPVSDLDGVDYPKPYRGKHKILVIAADERYLPTDNGKLFSTGNHPIETLLPLYHLHAAGFEFEVATISGLMTKFEYWAMPHKDEKVMPFFEQHKSLFRNPKKLADVVASLNADSEYAAIFVPGGHGALIGLPESQDVAAALQWAIKNDRFVISLCHGPAAFLALRHGDNPLNGYSICAFPDAADKQTPEIGYMPGHLTWYFGEELKKMGMNIINDDITGRVHKDRKLLTGDSPFAANALGKLAAQEMLAAYAGLEHHHHHH | soluble |
| MIPLVSIIVPMYNVEPFIEECIDSLLRQTLSDIEIILVNDGTPDRSGEIAEDYAKRDARIRVIHQANGGLSSARNTGIKAARGTYIGFVDGDDYVSSAMFQRLTEEAEQNQLDIVGCGFYKQSSDRRTYVPPQLEANRVLTKPEMTEQLKHAHETRFIWYVWRYLYRRELFERANLLFDEDIRFAEDSPFNLSAFREAERVKMLDEGLYIYRENPNSLTEIPYKPAMDEHLQKQYQAKIAFYNHYGLAGACKEDLNVYICRHQLPMLLANACASPNSPKDIKKKIRQILSYDMVRQAVRHTPFQHEKLLRGERLVLALCKWRLTFLIKLFFEQRGTMKGSAKQALEHHHHHH | not soluble |
| MGSDKIHHHHHHMSANTQSMIFTVYGDYIRHYGNQIWVGSLIRLLKEFGHNEQAVRVAVSRMVKQGWLTSQKQGTKSFYSLTPRGVERMEEAARRIYKSTPHVWDGKWRTLMYTIPEDKRQIRDELRKELSWSGFGNLSNGVWISPNPLEKEAERLIEAYDIKAYIDFFVGEYHGPQQDQSLVERAFPLDELQERYEQFIAEYSRRYIVHQSRIQLGEMDEEQCFVERTTLVHEYRKFLFTDPGLPQELLPDEWSGHHAALLFEQYYRLLAEPASRFFESIFRETHDVTQKSADYDASEHPLFAER | not soluble |
| MGSDKIHHHHHHMMDMLIAHISDTHITNEVAFKSYAYDLIVNEINTKPFDLVVHTGDVTNNGLREEYEHASYLIKKIEKPLVVVPGNHDARNVGYELFEKYIGPLYGVYEFDNGVIIWLDSTIPDLSDGRVGGYKFKWLKEKLEAYSHKKIKIVAAHHHLVPLPDTGRERNVLFNAGDVLDLLLTHEVTLYMCGHKHVPNVYRVEDLVVDNAGCASCRKTRKGDVNSYNIVKITDKGVKVVIRRLTGDEESKEHNPIRPKIFIPRGRRLLRIVQISESNVSDRVYFRKRTLENAIKAINEKYKPDIVIHCGDVVEKGIERYYEKAMEYYEKVKGEKIIVPGHNDISYLGYELFREYFGEPEVLELGDFVFIPILSAQYETQIGVVGRTGQKMLSRMLEEFREKFRIVIMHHNLVPVPGVKEIGYLEDAGNVLKIITENETELTLTGHGGNTSAVKVEKSPIINAGSISWELHRNPFGNSFNIIDIYEDMVVAFEIQATWGSRKVLGMWKIKSEIPWL | not soluble |
| LPLRESHTAHQATDFGVKVFQQVVQASKDRNVVFSPYGVSSVLAMLQMTTAGKTRRQIQDAMGFKVNEKGTAHALRQLSKELMGPWNKNEISTADAIFVQRDLELVQGFMPHFFKLFQTMVKQVDFSEVERARFIINDWVERHTKGMINDLLAKGAVDELTRLVLVNALYFSGQWKTPFLEASTHQRLFHKSDGSTVSVPMMAQSNKFNYTEFTTPDGLEYDVVELPYQGDTLSMFIAAPFEKDVHLSALTNILDAELIRQWKGNMTRLPRLLILPKFSLETEVDLRGPLEKLGMPDMFSATLADFTSLSDQEQLSVAQALQKVRIEVNESGTVASSSTAFVISARMAPTEMVIDRSFLFVVRHNPTETILFMGQVMEP | soluble |
| MGSDKIHHHHHHMGNRTRTIAGKDITRSVADALQYISYYHPPDYIRSLSQAYAREQSPAAKNAIGQILLNSRMAAFGRRPICQDTGLVVVFAKVGMETRIKSTISFADLVNEGVRQAYLDPDNPLRASIVADPLAGRVNTRDNTPAVVHVDLVQGNQIEITIAAKGGGSENKARFTTLNPSASVSDWVIDTVSTLGSGWCPPGLISVGIGGSAEKAMLLAKEAMNKPIDMSELIARGPSSAEEALRIELYERINALGIGAQGLGGLTTVVDVKVATYPTHAASKPVALIPQCAANRHLKFTLDGSGPIRVQPPDLCEWPDIGTDELSPAGVRRVNLDALTKEETASWRCGETLLLSGKMLTGRDAAHKRMVELIDAGKPLPFDLQGRVIYYVGPVRAVRDEVVGPAGPTTSSRLDDFTDKVLAETGLFAMVGKAERGRAAIESIVRHKTPYLIAVGGAAYLISKSIKSARLIAFEDLGMEAVYEFEVQDMPVIMAVDVDGNSIHNSGPLEWRKRMAADSIARNIGV | not soluble |
| MKVDLNSDLGESFGRYKLGLDDEVMKYITSANVACGWHAGDPLVMRKTVRLAKKNNVQVGAHPGYPDLMGFGRRYMKLTPEEARNYILYQIGALYAFVKAEGLELQHVKPHGALYNAMVKEEDLARAVIEGILDFDKRLIVVTLAGSRVVEIAREMGARVAQEGFADRAYNPDGTLVPRSRPGAVIEDKEEIAERVISMVKDGGIRAINGEWIELEVDTICVHGDNPKAVEITAYIRRRLEEEGVKVLPMGDFIK | soluble |
| MRAIYATDLSAASEAAIQNETCLECLGRIGVDTIHLVTVIPSNVHAGMPGMNFSKRREQGLTRYQNVMEDAGFDTETHVVRGTPHRRINGIAEAEKADVTIIGSRGQSPLNNRVIGSTARNLARTTVVPLLVNRIERSTDEPDVLREHLFQRVLYATDFSENATRAFDAFQYLRHATQEATLVHVESPKDATSEADPAEQLASLADTLSQWDIETNVEVRRGDPAEEILDVEAAVTPTTTLVGSRGQSRMRRLLLGSVSEDIIAQATGNVYLVPPPRTA | not soluble |
| MSASLRQSELTIRACILYEALGKNPIQLSYYNFCTRVGNGVMGFSDFEFWYDRFSNGNHDLDYDRSVNQVPKSLPEMPKSEKTEISEIGTQVDIVELLNLMKVSQSVAQKRKVVLDSLVVQFYEGESCSRLIFNDRYIIKYEKKDQGCTVSYSDNRASSDSRKKEINVTDEDYVELCIKDLKLLMENRMVHLKTFRFAIIAVATKEFREKCMKRVEEALKTAKSLTSRTVETTGGYLLELAQLMAIFPAKNVEEIRFTGDGTIGSEQLVSLEQWKNARKFDGMRDLNVPIEHFLHFETFIVYLSVFTEDDAVKLRDMIDRSAHFCYARLHFKSMNIRTLMGVFDVYNTEHNIVYQTPDQRYFNVRFYSNELQITKSAILNFQIE | not soluble |
| MSLATVLVTGATGFIGSHVVEALAPRHDVVGLASSVYPSPRDAVRHVRMTLPHPDLEELVATLRPDVVVHCAGVASVGLSMHSPGVDFQSGPPVVFQLFDAIRKAGLASKVVLLSSAAVYGNPQSLPVGEDAPRAPISPYGWHKGMCEDIAQEFHGTYGIRSAVLRIFSCYGAGLRKQLLWDAAHKLLEGAFVFDGTGDETRDFIHVRDVAAFVTRLVEGWPDGGCVVCNVASGEATRIADLLALLPEAFGLSGVVPVFTGRVRGGDPHHWRADISRARQMGLAPAVSLEEGVREYATWFFAVTGGEGHHHHHH | soluble |
| MGSDKIHHHHHHMDLRQIRTFVYIAELRSYTRAAAFLHVSQPALSRQMRLLEEELRLKLFLRHGHGVELTNEGVAFFARCRDVLSEFEQLRHDFRSTGANKAVMGLVSVGLPAPATRFATPKLLHAARKSYPGLSVRFAEGFSALLHEWLLSGSLDLAVLFGSNTPKLLTSLPVLVEDLVAISAATKTSRKKNFVNAQDLQNTPLILPHRPHILRELIDSLHLKKVEILEVDSTSLMIELARVGDGTTILPAGSAEQSIRAGHVVALPIINPTLSWQVSICYSSVRPLSVGARVVLDLMRREIAQKVTSGEWLSGRLIRPGTEMTEGLDAAP | not soluble |
| MAHHHHHHMDWVKVMNLIYASRDVDATTLAFNAAMSAVEKKGCLKSMLEVFEIMKKKNIKPDLVSYKLLLRLCANYHLGEHAEILFDEMVETDKLTPTYEIYALMISCFAKVGDGHRAVEFVEKLRSDPLVGEVNNWGEAGGVSGSGSADDRQHPAWRDSFAEEATTEEGAEAEGSTYTNQFKEITKKIKHIERGSSKIQYSEYANVIFACNMSNLPEQGIKYFEELLNTGKYMPSTLLLESIFDLLAKNGNYEKCLDYYNKLKDDPNFKKAINVNILNNILKALSVQGKINIIEDLWKNEFDELMLTPNEISYGYMLKVYSIVDDYEKAFKLFKEMQMKKMLSNKNIIPFVYTINAFKNCGIYNYAIYVLRVAKLLGVSSEDLLKLYNDAMVACVNAKKYDVVISLYAELITMQEKGAPSLEISISTLGFVLLAFRELDMREDFTNLKNLIIQKNYKLTPLCGQLVSEQPH | not soluble |
| MGSDKIHHHHHHMTMTNTPRQDSPFEKPVRVRAGFSLTFDVPYATPMIFVVQPQDRLSPTGTRQRIIDQRPLAAAEGIHTYTDTHGNLIWRTVAQPGEFTIGHDLIAEIERRPDPQLPGLRKMMVEELPDDVLQYLLPSRYVDSDLVSAEAWERFGNVQGGWAQVQAVCDYLFDTCVYGYGSNSTTTASQALGSGRAVCRDFAHMGVAFCRALNIPARYVCGYMPDIDYPPDPVPMDFHAWFEAFIDGEWRTFDARHNIPRTGRVLIAQGRDASDVAFTTSFGSAKLVNMKVWADETDFDNTLDIAPNPRIF | not soluble |
| MGSDKIHHHHHHMSETIQPGQTAVVLGAGGFLGSHVADALSNAGYKVRLFDRNPSPFRRSDQEMIIGDLMDISQVSNAVQGAAAVYNFAAIADIDEAHDNPLGTASINVLGNMHALEASRLAGVRRFIFASSVYVYSETGSFYRASKQAAERFTETYHERYGLEYTILRYGSLYGRRSDRRNGIYRMLHEAIQQRAITYRGSGESIREYIHVEDAARMSVQILAPEFANRHLILTGQEKLRIRDVMTMISEMLPWNVDLHYDQAKPGHHYQITPYAFQPRVGRKLVLNEHVDLGQGLLDCIQEIYQQISHGNEEGGTTPSSTDNQA | not soluble |
| MKFKKLFSRLLLATGIMFAGTFTYQNIEHTHVSKAASYNYYTKGQCTWWAYQRRAQLGKPVSNRWGNAKNWYYNAKRSGYRTGHTPKRYAVMQSTAGYYGHVAVVERVYSNGSIKVSEYNYNRPSAYGTRYLSKWSARNYNYIYLEHHHHHH | not soluble |
| ISEFSDWQETLLEHLTQWVEAEIERDIAVDSHEESQRLLEATFNSPETFIGILDADGTLIRANETALGFIDADAADVCGEPFCETPWWNHDEAVANRCREAVERTRAGETVRFEAEHVGADGQRISTSVVARPVTAD | not soluble |
| MGSDKIHHHHHHENLYFQGMLIEIPNVFSKQEVSHLREQLDARRWIDGNQTSGAMATTRKRNQQLDKDDPVAVALGQQIMDRLLAHPQFVSAALPLQFYPPLFNRYQGGETFGYHIDNAIRSTPDGMIRTDLSATLFLSEPENYQGGELVIQDTYGQQSIKLSAGSLVLYPSSSLHQVTPVLSGERTAAFMWLQSMVRDEGQRRLLFQLDQSIQSLTAQTAAEQELFNLSGVYHNLLRRWSEL | soluble |
| MAHHHHHHMFFRTCCRLMVRPTALQRCKSVNSVTLVGVVHDIQSGFVYEDAVTQFTLTTTSIDTTHPTQEVVVEKDHHTIRCFGELFSAEVKQKVKEGNVVCVNGRLRLSPQLEPSCNKHFYFPYIQVQPPHGQVAVIHGDRRNTPASVNPTAEEIPAESESGTTSKTS | not soluble |
| MGSDKIHHHHHHMGKGTNPTIGIALGSGAAKGWAHIGVLNGLAAMGIKPDKVAGCSVGALVGAAYAHNHLAELEEWVRSFSSWDVLGLMDIRWRKGGLIGGEKVFDVLQSRIGDVNIEDLEYPFAAIATDLYSGQEIWFRHGDLRQAVRASCSMPGILAPVRQGERWLVDGAVVNPVPVSVSRAMGVDIVIAVDLHGFHSGRLQVLPVNMTSHRATKEDTEMPARQETGFMDLFARGREYVSNLTDKFSLGTKSNPGMIAVMSQSMGILEQRHKRARLMGDPPDICIVPEVANIGTMEFHRADEAIAAGEAAVAKVAHLIEAAIWKD | not soluble |
